What was measured:
[1] = biological target: T1, native, intact ErbB2 extracted from the membranes of human breast cancer cells (Homo sapiens, UniProt P04626); test: ELISA of peptide phage on solubilized membrane lysates captured with anti-ErbB2 antibody; format: binding
T1 construct: native, intact ErbB2 extracted from the membranes of human breast cancer cells; endogenous in cells; host or cells: BT474 and SKBR3 breast cancer cells (MCF7 as low-expression control)
Protocol: The above identified peptide phage specifically bind to native, intact ErbB2 extracted from the membranes of human breast cancer cells that overexpress ErbB2. Plates were coated with 1 μg of an antibody that binds to the intracellular domain of ErbB2, followed by 100 μl of solubilized membrane preparations from two different breast cancer cell lines that overexpress ErbB2 (BT474 and SKBR3), and probed with CB1 peptide-phage, control library phage, and 9G6 anti-ErbB2. MCF7 cells serve as a (relative) negative target control, as MCF7 breast cancer cells express only a low level of ErbB2.
Peptide phage derived from the EC-1 biases library similarly bind specifically to membrane lysates from ErbB2 expressing SKBR3 cells but not to lysates from minimally expressing MCF7 cells. (See FIG. 2B.)

[2] = biological target: T2, ErbB2 (pY1248, pY877) in SKBR3 cells (Homo sapiens, UniProt P04626); test: ErbB2 phosphorylation, Western blot with phospho-specific ErbB2 antibodies and densitometry; format: cell-based
T2 construct: ErbB2 overexpressing SKBR3 cells were treated with the EC-1 free peptide; endogenous in cells; host or cells: SKBR3
Protocol: FIG. 6A is a Western blot analysis of SKBR3 cell lysates made at various times following 15 minute treatment with 25 μM EC-1 peptide. Blots were probed with pY1248 phospho ErbB2 antibody, pY877 phospho ErbB2 antibody and total ErbB2 antibody.
ErbB2 overexpressing SKBR3 cells were treated with the EC-1 free peptide to determine its effect on ErbB2 activation. When ErbB2 is activated it becomes phosphorylated on specific tyrosine residues (i.e., pY1248 and pY877). This is turn triggers downstream signal transduction events, culminating in increased cellular proliferation. Viable SKBR3 cells were treated with 25 μM EC-1 peptide for 15 minutes. At 0.5, 2, 4, 8, 22 and 48 hours thereafter, cell lysates were prepared and run on a Western blot using phospho-specific ErbB2 antibodies. […] (See FIG. 6B.) The peptide had no effect on total ErbB2 expression.

WTGW C LNPEESTWGF C TGSF (WTGWCLNPEESTWGFCTGSF) [EC-1]
binding to membrane lysates from ErbB2 overexpressing cells by ELISA ([1]; BT474 and/or SKBR3 lysates): binding to SKBR3
binding to membrane lysates from MCF7 cells by ELISA ([1]; MCF7 cells express only a low level of ErbB2): not to MCF7
time for which phosphorylation of ErbB2 is inhibited after treatment ([2]; 25 μM EC-1): at least 8 hours
effect on total ErbB2 expression ([2]; 25 μM EC-1 peptide): no effect
inhibition of the phosphorylation of residues pY1248 and pY877 of ErbB2 ([2]; 25 μM EC-1 peptide for 15 minutes, after 0.5 hrs): 40%
